Source: article PMC4456216 (Nature structural & molecular biology, 2015)

B1: mouse CRY1 CC peptide (residues 470-503) (peptide)
peptide: MVNHAEASRLNIERMKQIYQQLSRYRGLGLLASV
B2: BMAL2 transactivation domain (TAD), residues 540-579 (domain or fragment, mouse, UniProt Q2VPD4 540-579, looked up)
chain: LGFDVLCDSDSIDMAAFMNYLEAEGGLGDPGDFSDIQWAL
B3: mouse CBP KIX domain (domain or fragment)
chain: not shown

Columns and labels:
[1] = biological target: B2; experiment: ITC
[2] = biological target: p300 KIX domain (residues 565-653) (mouse, UniProt B2RWS6 565-653); experiment: NMR titration
Sequence of p300 KIX domain (residues 565-653) (B2RWS6 565-653): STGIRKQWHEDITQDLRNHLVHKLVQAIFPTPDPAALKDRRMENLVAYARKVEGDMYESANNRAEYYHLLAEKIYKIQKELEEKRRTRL

Row | Binder | stoichiometry N [1] | binding result [2]
1 | B1 | 0.7 | 
2 | B2 |  | binds
3 | B3 | 0.7 | 
